Laboratory results from PMC7092707 (Biotechniques, 2019).

Molecular target: adenosine A2A receptor (human (endogenous in postmortem ventral …, UniProt P29274 1-412))
Assay: proximity ligation

Sequence of adenosine A2A receptor (human (P29274 whole entry): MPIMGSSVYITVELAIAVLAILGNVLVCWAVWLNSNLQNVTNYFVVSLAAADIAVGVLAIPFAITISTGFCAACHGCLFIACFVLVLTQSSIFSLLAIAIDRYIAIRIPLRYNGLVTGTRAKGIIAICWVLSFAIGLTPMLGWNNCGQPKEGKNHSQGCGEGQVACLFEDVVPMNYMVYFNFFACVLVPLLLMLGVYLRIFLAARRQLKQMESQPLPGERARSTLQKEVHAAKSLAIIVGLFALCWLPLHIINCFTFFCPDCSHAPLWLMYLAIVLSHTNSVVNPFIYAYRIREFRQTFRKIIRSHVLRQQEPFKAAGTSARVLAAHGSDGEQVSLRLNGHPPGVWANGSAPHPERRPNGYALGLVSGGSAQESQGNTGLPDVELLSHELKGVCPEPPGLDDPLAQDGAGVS

- fraction of D2R-A2AR complex relative to total A2AR (PLA puncta): 12.3 ± 1.8%
- fraction of D2R-A2AR complex relative to total D2R (PLA puncta): 13.4 ± 5.3%
B1: dopamine receptor type 2 (receptor, UniProt P14416 1-443, looked up)
chain: MDPLNLSWYDDDLERQNWSRPFNGSDGKADRPHYNYYATLLTLLIAVIVFGNVLVCMAVSREKALQTTTNYLIVSLAVADLLVATLVMPWVVYLEVVGEWKFSRIHCDIFVTLDVMMCTASILNLCAISIDRYTAVAMPMLYNTRYSSKRRVTVMISIVWVLSFTISCPLLFGLNNADQNECIIANPAFVVYSSIVSFYVPFIVTLLVYIKIYIVLRRRRKRVNTKRSSRAFRAHLRAPLKGNCTHPEDMKLCTVIMKSNGSFPVNRRRVEAARRAQELEMEMLSSTSPPERTRYSPIPPSHHQLTLPDPSHHGLHSTPDSPAKPEKNGHAKDHPKIAKIFEIQTMPNGKTRTSLKTMSRRKLSQQKEKKATQMLAIVLGVFIICWLPFFITHILNIHCDCNIPPVLYSAFTWLGYVNSAVNPIIYTTFNIEFRKAFLKILHC
